Measurements: US20250034266A1
One block for each binder: values may come before it.

How the values were obtained:
human CCR8 (human) = human CCR8 (human) (UniProt P51685); test: cell-based or functional assay
human CCR4 (human) = target: T1, human CCR4 (human) (UniProt P51679); test: FACS on ExpiCHO-S-human CCR4 cells
T1 sequence (looked up): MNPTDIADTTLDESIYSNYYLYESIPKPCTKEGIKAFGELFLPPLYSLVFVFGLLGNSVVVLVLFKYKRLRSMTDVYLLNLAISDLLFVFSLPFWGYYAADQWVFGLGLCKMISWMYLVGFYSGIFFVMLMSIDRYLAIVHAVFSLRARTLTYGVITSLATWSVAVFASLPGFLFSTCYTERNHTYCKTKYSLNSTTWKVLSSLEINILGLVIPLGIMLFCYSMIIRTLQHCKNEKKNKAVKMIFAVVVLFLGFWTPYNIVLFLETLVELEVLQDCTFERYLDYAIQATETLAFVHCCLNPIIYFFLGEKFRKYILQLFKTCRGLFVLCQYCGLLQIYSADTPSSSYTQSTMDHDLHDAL

human CCR8 (human), sequence (P51685 whole entry): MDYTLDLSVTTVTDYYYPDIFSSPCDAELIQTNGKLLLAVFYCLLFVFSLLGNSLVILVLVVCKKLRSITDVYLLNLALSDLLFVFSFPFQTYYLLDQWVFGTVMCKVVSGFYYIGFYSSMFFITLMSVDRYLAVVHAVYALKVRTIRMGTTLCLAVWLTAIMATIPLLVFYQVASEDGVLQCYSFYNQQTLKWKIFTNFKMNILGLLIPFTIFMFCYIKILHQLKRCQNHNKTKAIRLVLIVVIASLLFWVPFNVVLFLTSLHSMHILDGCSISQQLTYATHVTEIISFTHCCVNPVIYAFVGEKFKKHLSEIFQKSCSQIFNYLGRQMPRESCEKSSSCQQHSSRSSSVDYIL

EC50, ADCC reporter, F variant CD16a/NFAT-Jurkat, target CHO-K1-human CCR8 cells (human CCR8 (human)): 2.99 pM | EC50, ADCC reporter, F variant CD16a/NFAT-Jurkat, target HuT78 cells (human CCR8 (human)): 4.28 pM | EC50, ADCC reporter, V variant CD16a/NFAT-Jurkat, target CHO-K1-human CCR8 cells (human CCR8 (human)): 5.05 pM | EC50, ADCC reporter, V variant CD16a/NFAT-Jurkat, target HuT78 cells (human CCR8 (human)): 4.58 pM | EC50, ADCC with human PBMCs, target CHO-K1-human CCR8 cells (human CCR8 (human)): 0.828 pM | Max (RLU), ADCC reporter, F variant CD16a/NFAT-Jurkat, target CHO-K1-human CCR8 cells (human CCR8 (human)): 8.27e+06 RLU | Max (RLU), ADCC reporter, F variant CD16a/NFAT-Jurkat, target HuT78 cells (human CCR8 (human)): 1.56e+07 RLU | Max (RLU), ADCC reporter, V variant CD16a/NFAT-Jurkat, target CHO-K1-human CCR8 cells (human CCR8 (human)): 4.13e+06 RLU | Max (RLU), ADCC reporter, V variant CD16a/NFAT-Jurkat, target HuT78 cells (human CCR8 (human)): 8.88e+06 RLU | Max specific lysis (%), ADCC with human PBMCs, target CHO-K1-human CCR8 cells (human CCR8 (human)): 53%
B1: Hu149-12G1x (antibody, V domains shown, not shown: a dimerising Fc or GST)
VH: EVQLVESGGGLVQPGGSLKLSCAASGFTFNTYAMNWVRQASGKGLEWVGRIRSKSNFYATAYAASVKGRFTISRDDSKNTAYLQMNSLKTEDTAVYYCTRGKEYGSSYAMDYWGQGTLVTVSS
VL: DIVMTQSPLSLPVTPGEPASISCRSSKSLLHSNANTYLYWFLQKPGQSPQLLIYRMSNLASGVPDRFSGSGSGTDFTLKISRVEAEDVGVYYCMQHLEYPLTFGGGTKVELK

Max MFI (human CCR4 (human)): 44 MFI
B2: Hu149-4 (antibody, human IgG1, V domains shown)
VH: EVQLVESGGGLVQPGGSLKLSCAASGFTFNTYAMNWVRQASGKGLEWVGRIRSKSNFYATYYAASVKGRFTISRDDSKNTAYLQMNSLKTEDTAVYYCTRGRDYGSSYAMDYWGQGTLVTVSS
VL: DIVMTQSPLSLPVTPGEPASISCRSSKSLLHSNANTYLYWFLQKPGQSPQLLIYRMSNLASGVPDRFSGSGSGTDFTLKISRVEAEDVGVYYCMQHLEYPLTFGGGTKVELK

β-arrestin recruitment EC50 (CHO-K1 cells co-expressing PK-tagged human CCR8 and EA) (human CCR8 (human)): 288 pM
B3: CCL1 (CN-07, Almac) (ligand, UniProt P22362 24-96, looked up)
chain: KSMQVPFSRCCFSFAEQEIPLRAILCYRNTSSICSNEGLIFKLKRGKEACALDTVGWVQRHRKMLRHCPSKRK
